Reference: patent publication US20250376519A1 (JIANGSU HENGRUI PHARMACEUTICALS, published 2025)
Changes are numbered by the printed parent chain.

T1: human DLL3 (ACRO, DLL3-H52H4) (human, UniProt Q9NYJ7 27-492)
T1 construct: Bought
T1 sequence: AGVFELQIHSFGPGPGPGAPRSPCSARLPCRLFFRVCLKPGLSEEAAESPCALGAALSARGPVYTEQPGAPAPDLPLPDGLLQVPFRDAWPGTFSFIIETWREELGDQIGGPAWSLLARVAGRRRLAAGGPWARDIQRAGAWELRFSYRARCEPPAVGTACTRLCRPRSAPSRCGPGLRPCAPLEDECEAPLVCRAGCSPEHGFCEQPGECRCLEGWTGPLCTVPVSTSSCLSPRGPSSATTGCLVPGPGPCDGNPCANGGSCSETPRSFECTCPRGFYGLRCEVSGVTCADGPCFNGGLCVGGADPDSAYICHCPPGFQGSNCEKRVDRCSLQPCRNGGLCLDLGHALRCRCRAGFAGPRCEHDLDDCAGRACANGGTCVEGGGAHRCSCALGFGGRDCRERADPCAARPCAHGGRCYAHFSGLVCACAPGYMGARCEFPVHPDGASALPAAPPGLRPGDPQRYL

T2: human DLL3 on cells (human, UniProt Q9NYJ7 27-618)
T2 construct: Endogenous on H1184 and SHP77; Cell line is named under assay; also called H1184; DLL3/H82
T2 sequence: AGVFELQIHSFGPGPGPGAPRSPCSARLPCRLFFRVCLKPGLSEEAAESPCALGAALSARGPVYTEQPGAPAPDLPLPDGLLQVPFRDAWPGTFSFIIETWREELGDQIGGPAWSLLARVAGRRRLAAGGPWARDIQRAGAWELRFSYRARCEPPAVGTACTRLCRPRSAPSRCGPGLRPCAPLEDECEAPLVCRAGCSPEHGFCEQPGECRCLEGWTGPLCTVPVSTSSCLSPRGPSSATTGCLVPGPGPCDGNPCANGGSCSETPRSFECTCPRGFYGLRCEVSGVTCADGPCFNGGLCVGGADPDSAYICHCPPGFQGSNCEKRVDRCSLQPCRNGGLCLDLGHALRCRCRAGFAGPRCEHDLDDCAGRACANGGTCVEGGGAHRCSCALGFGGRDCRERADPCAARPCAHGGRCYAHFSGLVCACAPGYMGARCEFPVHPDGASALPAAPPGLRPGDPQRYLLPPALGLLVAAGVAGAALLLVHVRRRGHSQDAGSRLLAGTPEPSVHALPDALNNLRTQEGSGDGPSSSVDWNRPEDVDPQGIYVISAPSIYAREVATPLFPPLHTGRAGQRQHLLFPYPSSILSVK

B1: hu30L1H5 (antibody, human IgG1, kappa, V domains shown)
VH: EVRLVQSGAEVKKPGASVKVSCKASGYTFTDYYMNWVRQAPGQSLEWMGIINPYTGDTSYNQKFRGRVTLTVDKSASTAYMELSSLRSEDTAVYYCARYHYGPHLEGYFDVWGQGTTVTVSS
VL: DIVMTQSPDSLAVSLGERATINCKASENVGYVSWYQQKPGQPPKLLIYGASNRYTGVPDRFSGSGSGTDFTLTISSLQAEDVAVYYCGQSYSYPLTFGQGTKLEIKR
B2: hu30L4H5 (antibody, human IgG1, kappa, V domains shown)
VH: B1 VH
VL: DIQMTQSPSSLSASVGDRVTITCKASENVGYVSWYQQKPGKAPKLLIYGASNRYTGVPSRFSGSGSGTDFTLTISSLQPEDFATYYCGQSYSYPLTFGQGTKLEIKR
B3: hu30L5H9 (antibody, human IgG1, kappa, V domains shown)
VH: B1 VH with M48I, V68A
VL: B2 VL with A42S, S59D, Q99S
B4: hu30L1H8 (antibody, human IgG1, kappa, V domains shown)
VH: B1 VH with S7F, E10V, A76S
VL: B1 VL
B5: hu30L4H11 (antibody, human IgG1, kappa, V domains shown)
VH: B1 VH with S7F, E10V, A76S, R87T
VL: B2 VL
B6: hu30L1H10 (antibody, human IgG1, kappa, V domains shown)
VH: B1 VH with A40S, P41H
VL: B1 VL
B7: hu30L4H9 (antibody, human IgG1, kappa, V domains shown)
VH: B1 VH with M48I, V68A
VL: B2 VL
B8: hu30L4H8 (antibody, human IgG1, kappa, V domains shown)
VH: B1 VH with S7F, E10V, A76S
VL: B2 VL
B9: hu30L5H5 (antibody, human IgG1, kappa, V domains shown)
VH: B1 VH
VL: B2 VL with A42S, S59D, Q99S
B10: HJ-3 (bispecific antibody)
chain 1: not shown
chain 2: DIQMTQSPSSVSASVGDRVTITCRASQDIANYLSWYQQKPGKSPKLLIYGTSNLEVGVPSRFSGSRSGTDFTLTISSLQPEDFATYYCLQDKEFPRTFGGGTKVEIKGGGGSSGAPRFLTRPLAFVVSVGKDATLSSQIVGNPTPQVSWEKDKQPVTAGARFRLAQDGDLYRLKILDLQLSDSGQYVSRARNAIGEAFACLGLQVDAEA
chain 3: EVQLVQSGAEVKKPGSSVKVSCKASGYTFSNYLIEWVRQAPGQGLEWIGVIDPGVGDTNYNENFKGRATLTADKSTSTAYIELSSLRSEDTAVYYCAREDNTGTAFDYWGQGTTVTVSSASTKGPSVFPLAPSSKSTSGGTAALGCLVKDYFPEPVTVSWNSGALTSGVHTFPAVLQSSGLYSLSSVVTVPSSSLGTQTYICNVNHKPSNTKVDKKVEPKSCDKTHTCPPCPAPEAAGGPSVFLFPPKPKDTLMISRTPEVTCVVVDVSHEDPEVKFNWYVDGVEVHNAKTKPREEQYNSTYRVVSVLTVLHQDWLNGKEYKCKVSNKALPAPIEKTISKAKGQPREPQVCTLPPSREEMTKNQVSLSCAVKGFYPSDIAVEWESNGQPENNYKTTPPVLDSDGSFFLVSKLTVDKSRWQQGNVFSCSVMHEALHNHYTQKSLSLSPGKDYKDDDDK
chain 4: SIVMTQTPLSLSVTPGQPASISCKASQSVSSDVTWYLQKPGQSPQLLIYYVSEHYTGVPDRFSGSGYGTDFTLKISRVEAEDVGVYYCQQHHRFPLTFGQGTKLEIKRTVAAPSVFIFPPSDEQLKSGTASVVCLLNNFYPREAKVQWKVDNALQSGNSQESVTEQDSKDSTYSLSSTLTLSKADYEKHKVYACEVTHQGLSSPVTKSFNRGEC
B11: HJ-9 (bispecific antibody)
chain 1: not shown
chain 2: B10 chain 2 with G108R, G109T, G110V, G111A, R121C, L123K, F125S, T144F, A160V, I194H
chain 3: EVQLVQSGAEVKKPGSSVKVSCKASGYTFSNYLIEWVRQAPGQGLEWIGVIDPGVGDTNYNENFKGRATLTADKSTSTAYIELSSLRSEDTAVYYCAREDNTGTAFDYWGQGTTVTVSSASTKGPSVFPLAPSSKSTSGGTAALGCLVKDYFPEPVTVSWNSGALTSGVHTFPAVLQSSGLYSLSSVVTVPSSSLGTQTYICNVNHKPSNTKVDKKVEPKSCDKTHTCPPCPAPEAAGGPSVFLFPPKPKDTLMISRTPEVTCVVVDVSHEDPEVKFNWYVDGVEVHNAKTKPREEQYNSTYRVVSVLTVLHQDWLNGKEYKCKVSNKALPAPIEKTISKAKGQPREPQVCTLPPSREEMTKNQVSLSCAVKGFYPSDIAVEWESNGQPENNYKTTPPVLDSDGSFFLVSKLTVDKSRWQQGNVFSCSVMHEALHNHYTQKSLSLSPGK
chain 4: B10 chain 4
B12: HJ-5 (bispecific antibody)
chain 1: not shown
chain 2: B10 chain 2 with L123K, F125S, T144F, A160V, I194H
chain 3: B11 chain 3
chain 4: B10 chain 4
B13: HJ-6 (bispecific antibody)
chain 1: not shown
chain 2: B10 chain 2 with R121C, L123K, F125S, T144F, A160V, I194H
chain 3: B11 chain 3
chain 4: B10 chain 4
B14: HJ-11 (bispecific antibody)
chain 1: not shown
chain 2: DIQMTQSPSSVSASVGDRVTITCRASQDIANYLSWYQQKPGKSPKLLIYGTSNLEVGVPSRFSGSRSGTDFTLTISSLQPEDFATYYCLQDKEFPRTFGGGTKVEIKRTVASSGCPRFLTRPKASVVSVGKDATLSCQIVGNPFPQVSWEKDKQPVTAGVRFRLAQDGDLYRLKILDLQLSDSGQYVCRARNAHGEAFACLGLQVDAEA
chain 3: B11 chain 3
chain 4: B10 chain 4
B15: HJ-7 (bispecific antibody)
chain 1: not shown
chain 2: B14 chain 2 with R108G, T109G, V110G, A111G, C115A
chain 3: B11 chain 3
chain 4: B10 chain 4
B16: HJ-10 (bispecific antibody)
chain 1: not shown
chain 2: B14 chain 2 with C115A
chain 3: B11 chain 3
chain 4: B10 chain 4
B17: HJ-8 (bispecific antibody)
chain 1: not shown
chain 2: B14 chain 2 with C115A, C137S, C188S
chain 3: B11 chain 3
chain 4: B10 chain 4

Target: T1, human DLL3 (ACRO, DLL3-H52H4)
Experiment: SPR Biacore 8K, Ab captured on Protein A
Method in brief: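 Antibodies captured on a Protein A chip for 18 s; DLL3 or CD3D&3E antigen flowed 180 s, then 600 s dissociation, with real-time detection. Regeneration used 10 mM glycine-HCl pH 1.5 between cycles. Kinetics were obtained by 1:1 model fitting.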

Kd | koff | kon | Binder
0.952 nM | 0.00117 s⁻¹ | 1.23e+06 M⁻¹ s⁻¹ | B1
2.09 nM | 0.00092 s⁻¹ | 440000 M⁻¹ s⁻¹ | B2
2.48 nM | 0.000989 s⁻¹ | 399000 M⁻¹ s⁻¹ | B3
2.57 nM | 0.00109 s⁻¹ | 425000 M⁻¹ s⁻¹ | B4
2.84 nM | 0.00113 s⁻¹ | 398000 M⁻¹ s⁻¹ | B5
2.19 nM | 0.000964 s⁻¹ | 440000 M⁻¹ s⁻¹ | B6
2.57 nM | 0.00101 s⁻¹ | 392000 M⁻¹ s⁻¹ | B7
2.74 nM | 0.000942 s⁻¹ | 343000 M⁻¹ s⁻¹ | B8
1.98 nM | 0.000882 s⁻¹ | 446000 M⁻¹ s⁻¹ | B9

Target: T2, human DLL3 on cells
Experiment: flow cytometry, SHP77 cells
Experimental: The plates were centrifuged at 300 g for 5 min, and the supernatant was removed. Different concentrations of test antibodies were added at 100 μL/well. The plates were incubated in the dark in a refrigerator at 4° C. for 1 h. After 3 centrifugal washes at 300 g, working concentrations of APC anti-human IgG Fc (BioLegend, 410712) or PE F(ab′)2-goat anti-human IgG (invitrogen, H10104) were added. The plates were incubated in the dark in a refrigerator at 4° C. for 40 min. After 3 centrifugal washes at 300 g, the geometric mean fluorescence intensity was measured on an Invitrogen flow cytometer, and the EC50 values for the binding of the antibodies to DLL3-expressing cells were calculated.

EC50 | Emax | Binder
6.45 nM | 1540 | B1
5.44 nM | 1460 | B2
9.6 nM | 1560 | B3
5.67 nM | 1380 | B4
7.82 nM | 1520 | B5
7.99 nM | 1630 | B6
9.94 nM | 1370 | B7
5.3 nM | 1420 | B8
7.48 nM | 1610 | B9

Target: T2, human DLL3 on cells
Experiment: flow cytometry, DLL3/H82 cells
Set-up: key to Emax: geometric mean fluorescence intensity (flow cytometry)
Method in brief: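 Binding of antibodies to DLL3-expressing H82 cells was assessed by flow cytometry. Cells were pelleted at 300 g for 5 min, then given 100 μL/well of antibody at various concentrations and kept dark at 4° C. for 1 h. After three washes, APC anti-human IgG Fc or PE F(ab′)2-goat anti-human IgG was applied for 40 min at 4° C. Geometric mean fluorescence gave EC50 values.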

EC50 | Emax | Binder
0.88 nM | 6800 | B1

Target: hIL5 (human, UniProt P05113 20-134)
Experiment: ELISA

EC50 | Binder
17.4 nM | B10
10.9 nM | B11
16 nM | B12
37 nM | B13
9.46 nM | B14
17.7 nM | B15
20.8 nM | B16
18.7 nM | B17

Target: hTSLP (human, UniProt Q969D9 29-159)
Experiment: ELISA

EC50 | Binder
3.23 nM | B10
3.18 nM | B11
2.64 nM | B12
2.88 nM | B13
3 nM | B14
2.18 nM | B15
3.17 nM | B16
3.33 nM | B17
